Test results reported in US20260085122A1.
Each block holds one binder with its values, some of them ahead of it.

Molecular target: native B7H3 on cells (UniProt Q5ZPR3)
Assay: flow cytometry on cells with native B7H3 (taken as H358), anti-His-tag iFluor 488 detection

Sequence of native B7H3 on cells (Q5ZPR3 29-534): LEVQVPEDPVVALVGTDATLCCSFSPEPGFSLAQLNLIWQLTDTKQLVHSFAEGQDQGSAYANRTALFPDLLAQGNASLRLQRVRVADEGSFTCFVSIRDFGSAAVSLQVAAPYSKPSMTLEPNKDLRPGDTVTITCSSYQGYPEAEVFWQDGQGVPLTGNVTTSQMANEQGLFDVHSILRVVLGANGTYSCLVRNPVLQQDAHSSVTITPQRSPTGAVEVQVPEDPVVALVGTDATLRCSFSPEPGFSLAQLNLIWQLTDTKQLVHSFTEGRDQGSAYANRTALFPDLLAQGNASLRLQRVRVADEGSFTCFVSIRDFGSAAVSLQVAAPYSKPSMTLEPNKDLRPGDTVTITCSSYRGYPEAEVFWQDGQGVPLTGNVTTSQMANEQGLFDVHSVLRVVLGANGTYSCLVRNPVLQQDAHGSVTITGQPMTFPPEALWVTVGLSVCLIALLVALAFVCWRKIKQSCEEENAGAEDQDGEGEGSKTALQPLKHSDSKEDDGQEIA

EC50: 6.29 nM
MFI: 496000
B1: VHH1_C001 (VHH)
VHH: EVQLVESGGGLVQPGGSLRLSCAASPRTFQTYFMGWFRQAPGKELEWVSVINWSGGTSYYKDSVKGRFTISRDNSKNTLYLQMNSLRAEDTAVYYCAAKGSGTYDREGEYDYWGQGTLVTVSS

EC50: 77 nM
MFI: 539000
B2: VHH1_C002 (VHH)
VHH: EVQLLESGGGLVQPGGSLRLSCAASGFTFSDYHMSWVRQAPGKGLEWVSGILNTGLSPTYAATVTGRFTISRDNSKNTLYLQMNSLRAEDTAVYYCAQGYYRATPSQANRGQGTLVTVSS
